For the assay, the target named is growth hormone receptor on ZFL cells (zebrafish liver cell line) (zebrafish). The assay can be described thus: cell-based or functional assay.

Consider “human growth hormone (from UniProt P01241 27-217) (ligand)”, for which the increase in cell proliferation relative to no growth hormone added (MTS-formazan conversion assay, ZFL cells) came to 13.7%.

For the origin of these results see patent US6429305.
